Test results taken from patent publication US20260152561A1.

Experiments:
[1] = biological target: MICA/MICB on tumor cells (MGC-803, U2OS); assay: cell-based or functional assay
[2] = biological target: PD-L1 on tumor cells (EMT6-PD-L1, U2OS) (UniProt Q9NZQ7); assay: cell-based or functional assay
Chain of UniProt Q9NZQ7 (Q9NZQ7 19-290 limits assumed): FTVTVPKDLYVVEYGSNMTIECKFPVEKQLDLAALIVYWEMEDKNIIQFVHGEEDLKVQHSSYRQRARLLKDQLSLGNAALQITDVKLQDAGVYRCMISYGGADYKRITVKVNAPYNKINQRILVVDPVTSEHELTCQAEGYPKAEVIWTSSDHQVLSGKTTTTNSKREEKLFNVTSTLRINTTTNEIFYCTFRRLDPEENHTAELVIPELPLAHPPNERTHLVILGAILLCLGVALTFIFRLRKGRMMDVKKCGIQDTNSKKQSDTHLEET

Question: With “dual-targeting chimeric antigen receptor PD1-DAP10-41BB-P2A-NKG2D-IgG4-CD28-41BB-CD3ζ, expressed on NK92 cells (PN-CAR-NK92)” as the substance, how does the cytotoxicity (luciferase killing assay, effector-to-target ratio 5:1) on U2OS cells [1] read?
Answer: Its cytotoxicity (luciferase killing assay, effector-to-target ratio 5:1) on U2OS cells is 6 fold.

Question: And the cytotoxicity (luciferase killing assay, effector-to-target ratio 5:1) on U2OS cells [2]?
Answer: The cytotoxicity (luciferase killing assay, effector-to-target ratio 5:1) on U2OS cells was 6 fold.
